B1: DH-MBP-p19, double-His6-MBP-p19 fusion protein with a C-terminal 40 aa solubility-supporting prolongation (ligand, human)
chain: RAVPGGSSPAWTQCQQLSQKLCTLAWSAHPLVGHMDLREEGDEETTNDVPHIQCGDGCDPQGLRDNSQFCLQRIHQGLIFYEKLLGSDIFTGEPSLLPDSPVGQLHASLLGLSQLLQPEGHHWETQQIPSLSPSQPWQRLLLRFKILRSLQAFVAVAARVFAHGAATLSPLEKKTCTSRASSTTTTTTEIRLLTKPERKLSWLLPPLSNN

What was measured:
[1] = biological target: T1, recombinant human IL-23R-IgG chimera (human, UniProt Q5VWK5 24-355, glycosylated); experiment: SPR
T1 sequence (looked up): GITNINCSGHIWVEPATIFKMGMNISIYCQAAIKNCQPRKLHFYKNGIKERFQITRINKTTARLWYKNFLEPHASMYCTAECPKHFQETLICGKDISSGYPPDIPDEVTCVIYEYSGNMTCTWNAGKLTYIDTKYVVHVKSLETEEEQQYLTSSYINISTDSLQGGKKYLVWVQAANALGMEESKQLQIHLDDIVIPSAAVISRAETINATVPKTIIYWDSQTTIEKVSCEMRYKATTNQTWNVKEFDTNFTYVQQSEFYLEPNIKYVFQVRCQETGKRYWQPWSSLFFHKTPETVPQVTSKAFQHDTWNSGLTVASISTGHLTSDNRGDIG

[2] = biological target: T2, H-exIL-23R, recombinant extracellular part of the human IL-23 receptor with N-terminal His6 tag (human, UniProt Q5VWK5 24-350); experiment: ELISA
T2 sequence (looked up): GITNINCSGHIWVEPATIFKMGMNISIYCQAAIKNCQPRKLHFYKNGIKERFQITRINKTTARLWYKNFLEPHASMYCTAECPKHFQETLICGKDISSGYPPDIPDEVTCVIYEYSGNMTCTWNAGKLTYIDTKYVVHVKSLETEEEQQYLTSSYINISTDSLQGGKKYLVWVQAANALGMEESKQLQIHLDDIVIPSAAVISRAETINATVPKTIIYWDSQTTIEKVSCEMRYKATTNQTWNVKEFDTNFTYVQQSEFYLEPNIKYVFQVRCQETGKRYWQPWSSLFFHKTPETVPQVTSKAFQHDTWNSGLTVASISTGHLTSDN

[3] = biological target: T1, recombinant human IL-23R-IgG chimera; experiment: ELISA

Row | Kd [1] [nM] | further results | Binder
1 | ~1 | – | His6-LAEAKVLANRELDKYGVSDHYKNWINPARRVRPVKWLIDAILAALP-{TolA-AviTag(biotin)} (designed binder, not fully specified) [His6-REX125-TolA-AVI]
2 | 1.3 | – | His6-LAEAKVLANRELDKYGVSDYYKNRINPACHVLSVKSNIDWILASLP-{TolA-AviTag(biotin)} (designed binder, not fully specified) [His6-REX009-TolA-AVI]
3 | – | binding result [2]: binds | His6-LAEAKVLANRELDKYGVSDRYKNSINRALPVAAVKWALDLILAWLP-{TolA-AviTag(biotin)} (designed binder, not fully specified) [His6-REX128-TolA-AVI]
4 | – | binding result [3]: binds | B1
